Measurements taken from patent US11369662B2 (The Medical College of Wisconsin, Inc., priority 2014, dated 2022).

Experiments:
CXCR4 [1] = molecular target: T1, CXCR4 (Homo sapiens, UniProt P61073); test: Confocal microscopy of CXCR4 Ser324/Ser325 phosphorylation in HeLa cells; type: cell-based; settings: HeLa cells with HA-CXCR4-YFP, 80 ng/ml, 15 min
T1 construct: purchased Millipore
Method: Connfocal microscopy. HeLa cells transiently transfected with HA-CXCR4-YFP were passaged onto poly-L-lysine coated coverslips and grown for 24 h. The next day, cells were washed once with warm DMEM containing 20 mM HEPES, pH 7.5, and incubated in the same medium for 3-4 h at 37° C. […] Cells were then fixed with PBS containing 3.7% paraformaldehyde, followed by permeabilization with 0.05% (w/v) saponin for 10 min, similar to a protocol we have described previously. Cells were then incubated with 1% goat serum in 0.05% saponin-PBS for 30 min at 37° C., followed by staining with […] monoclonal antibody that recognizes dually phosphorylated CXCR4 on serine residues 324 and 325 (clone 5E11) (1:50 dilution) for 1 h at 37° C. […] Samples were analyzed using an LSM 510 laser scanning confocal microscope (Carl Zeiss, Thornwood, N.Y.) equipped with a Plan-Apo 63×/1.4 oil lens objective. […] Acquired images were analyzed using ImageJ, version 1.41o software (National Institutes of Health, Bethesda, Md.) and Adobe Photoshop (CS4).
Confocal microscopy. […] Samples were analyzed using an LSM 510 laser scanning confocal microscope (Carl Zeiss, Thornwood, N.Y.) equipped with a Plan-Apo 63×/1.4 oil lens objective. […] Acquired images were analyzed using ImageJ, version 1.410 software (National Institutes of Health, Bethesda, Md.) and Adobe Photoshop (CS4).

CXCR4 [2] = molecular target: T1, CXCR4; test: CXCR4 degradation assay in HeLa cells; type: cell-based; settings: 80 ng/ml, 3 h, compared to vehicle
Method: (§1) CXCR4 degradation assay. HeLa cells grown on 6-cm dishes were washed once and incubated with DMEM containing 10% FBS and 50 μg/ml cyclohexamide for 15 min at 37° C. […] Cells were washed once and collected in 300 μl 2× sample buffer. Receptor levels were determined by SDS-PAGE followed by immunoblotting using an anti-CXCR4 antibody. Blots were stripped and reprobed for actin to assess loading. Receptor levels normalized to actin levels were determined by densitometric analysis.
as §1, with “2×sample” for “2× sample”

KG1a cells = test: Apoptosis assays in KG1a cells expressing CXCR4-YFP; type: cell-based, human; settings: for cleavage of PARP: 100 ng/ml
Method: Apoptosis assays. KG1a (human acute myelogenous leukemia) cells were assayed for CXCL12-dependent apoptosis as previously described. Briefly, CXCR4 expression on KG1a cells was achieved via transient transfection with a plasmid encoding a CXCR4-YFP fluorescent fusion protein. […] Apoptosis was assayed by staining cells with APC-conjugated annexin V to detect cell-surface phosphatidyl serine (BD Biosciences) or Alexaflour-647-conjugated antibody to detect cleaved PARP (BD Biosciences), and the percentage of YFP+ cells undergoing apoptosis was determined by flow cytometry.

CXCR4 [3] = molecular target: T1, CXCR4; test: CXCR4 ubiquitination assay in HEK293 cells stably expressing HA-CXCR4; type: cell-based; settings: HEK293 HA-CXCR4 with FLAG-ubiquitin, 80 ng/ml, 30 min
Method: (§2) CXCR4 ubiquitination assays. HEK293 cells stably expressing HA-CXCR4 grown on 10-cm dishes were transfected with 3 μg FLAG-ubiquitin. The next day, cells were passaged onto 6-cm dishes and allowed to grow for an additional 24 h. […] Cells were then washed once on ice with cold PBS, and collected in 1 ml lysis buffer [50 mM Tris-Cl, pH 7.4, 150 mM NaCl, 5 mM EDTA, 0.5% (w/v) sodium deoxycholate, 1% (v/v) NP-40, 0.1% (w/v) SDS, 20 mM N-ethyCXCL121aleimide (NEM), and 10 μg/ml each of leupeptin, aprotinin, and pepstatin A]. Samples were transferred into microcentrifuge tubes and placed at 4° C. for 30 min, followed by sonification and centrifugation to pellet cellular debris. Clarified cell lysates were incubated with an anti-HA polyclonal and isotype control antibodies and the immunoprecipitates were analyzed by SDS-PAGE followed by immunoblotting using an anti-FLAG antibody conjugated to HRP.
as §2, with “Tris-CI,” for “Tris-Cl,”

T1 sequence (P61073 whole entry): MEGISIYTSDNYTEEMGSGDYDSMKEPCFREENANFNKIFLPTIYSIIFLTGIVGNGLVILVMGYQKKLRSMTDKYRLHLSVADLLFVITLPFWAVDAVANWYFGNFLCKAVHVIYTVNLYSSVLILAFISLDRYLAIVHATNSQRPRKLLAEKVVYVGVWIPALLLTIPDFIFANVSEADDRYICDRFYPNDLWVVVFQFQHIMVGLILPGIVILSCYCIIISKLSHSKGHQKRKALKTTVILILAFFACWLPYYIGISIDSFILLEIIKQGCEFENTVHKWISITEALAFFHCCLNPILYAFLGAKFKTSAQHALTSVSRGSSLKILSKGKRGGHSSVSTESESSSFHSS

staining for CXCR4 phosphorylated on Ser324 and Ser325 (CXCR4 [1]) | CXCR4 degradation (CXCR4 [2]) | EC50 (KG1a cells; 16-18 h, read-out: EC50 of increase in annexin V) | CXCR4 ubiquitination (CXCR4 [3]) | CXCR4 ubiquitination (CXCR4 [3]; listed as CXCL12) | Substance | cleavage of PARP (KG1a cells) | increase in annexin V (KG1a cells; 16-18 h)
strong staining | approximately 60% | 1.75 ± 0.6 nM | prompted ubiquitin | promoted ubiquitination of CXCR4 | CXCL12WT: wild type CXCL12 (stromal cell-derived factor-1/SDF-1), SEQ ID NO:1 | significantly greater than CXCL122 | –
weak staining similar to vehicle | ~15% | – | failed to promote CXCR4 ubiquitination | – | CXCL122: constitutively dimeric variant of CXCL12 containing L36C/A65C mutations | enhanced the cleavage of PARP | small but significant increase
